The target in this experiment is Fcγ受体(FcγR). Put plainly: cell-based or functional assay.

For one substance, T cell activation in vivo (markers on splenocytes of dosed Balb/c mice, flow cytometry) results are on record in patent CN101627111A.

“2C11 huG1, HEK (145-2C11 variable regions on human IgG1/kappa, expressed in HEK 293E cells) (from UniProt P01857 1-330) (antibody)”: the T cell activation in vivo (markers on splenocytes of dosed Balb/c mice, flow cytometry) was 4 倍.
